These results are taken from patent US7608683B2, “Stress proteins and peptides and methods of use thereof” (The Regents of the University of California, priority 2000, dated 2009).

The test relates to PBMC of subjects with JIA. In words: T cell proliferation assay, PBMC of subjects with JIA. The class given is cell-based, human. To be noted: majority of JIA subjects; SI of 2 or higher positive.

B1: whole human hsp60: whole human hsp60 protein (protein)
chain: MLRLPTVFRQMRPVSRVLAPHLTRAYAKDVKFGADARALMLQGVDLLADAVAVTMGPKGRTVIIEQGWGSPKVTKDGVTVAKSIDLKDKYKNIGAKLVQDVANNTNEEAGDGTTTATVLARSIAKEGFEKISKGANPVEIRRGVMLAVDAVIAELKKQSKPVTTPEEIAQVATISANGDKEIGNIISDAMKKVGRKGVITVKDGKTLNDELEIIEGMKFDRGYISPYFINTSKGQKCEFQDAYVLLSEKKISSIQSIVPALEIANAHRKPLVIIAEDVDGEALSTLVLNRLKVGLQVVAVKAPGFGDNRKNQLKDMAIATGGAVFGEEGLTLNLEDVQPHDLGKVGEVIVTKDDAMLLKGKGDKAQIEKRIQEIIEQLDVTTSEYEKEKLNERLAKLSDGVAVLKVGGTSDVEVNEKKDRVTDALNATRAAVEEGIVLGGGCALLRCIPALDSLTPANEDQKIGIEIIKRTLKIPAMTIAKNAGVEGSLIVEKIMQSSSEVGYDAMAGDFVNMVEKGIIDPTKVVTALLDAAGVASLLTTAEVVVTEIPKEEKDPGMGAMGGMGGGMGGGMF
modifications: Homo sapiens hsp60
notes: whole human hsp60 protein
Regarding B1, the “T cell proliferative response to whole hsp60” value is “positive T cell proliferative response”.
